Experimental data reported in PMC5641120 (Oncotarget, 2017).

Target: human PD-1 (residues 33–150, Cys93 exchanged to serine) (human, UniProt Q15116 33-150, Cys93 exchanged to serine, uniform 15N labelling)
Assay: NMR titration; 1H-15N HMQC, 300K; AIDA: 15N-labeled PD-1 (0.2 mM) slightly overtitrated with unlabeled PD-L1; for the mutants also NMR-monitored direct titration; PBS pH 7.4 (PD-L1) or 25 mM sodium phosphate, 100 mM NaCl pH 6.4 (PD-1)
Settings: both partners purified

Sequence of human PD-1 (residues 33–150, Cys93 exchanged to serine) (Q15116 other isoform, or with tags, fused parts or gaps Cys93 exchanged to serine | Cys93 exchanged to serine): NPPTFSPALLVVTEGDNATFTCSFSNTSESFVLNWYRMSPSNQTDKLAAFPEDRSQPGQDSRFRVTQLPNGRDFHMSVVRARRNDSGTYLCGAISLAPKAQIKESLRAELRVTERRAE

B1: human PD-L1 (residues 18–134, C-terminal His-tag) (domain or fragment)
chain: AFTVTVPKDLYVVEYGSNMTIECKFPVEKQLDLAALIVYWEMEDKNIIQFVHGEEDLKVQHSSYRQRARLLKDQLSLGNAALQITDVKLQDAGVYRCMISYGGADYKRITVKVNAPY
modifications: NTA-Atto 647 N fluorescent dye on the His-tag (flow cytometry only); uniform 15N labelling (NMR titration with compounds only)
notes: PD-L1, human, residues 18-134 (Ig-like V-type domain); also called sPD-L1; soluble PD-L1; source: expressed and purified as described previously [26]; 15N labelling in M9 minimal medium; not shown: His-tag, C-terminal, kept
B1: binds.
